Data on eight substances can be found in the supplement of paper PMC5998384.

Series [1] deals with HeLa Kyoto. Nature of the series: solubility change mitosis vs G1/S (difference of NP-40 vs SDS log2 ratios) (log2 ratio difference); higher = more soluble in mitosis.
Series [2] deals with HeLa Kyoto. Nature of the series: thermal stability score vs G1/S (z-score of summed log2 fold changes over temperatures); higher = more thermally stable than in G1/S.
Series [3] relates to HeLa Kyoto. As to the kind of experiment: melting temperature (median over replicates), in situ; higher = more thermally stable.
The subject of series [4] is HeLa Kyoto. As to the kind of experiment: solubility in G1/S (NP-40 vs SDS abundance) (log2 ratio); higher = more soluble. The note with it: cell cycle stage: G1/S.
Setting [5] is: cell cycle stage: early G1 (4.5 h after nocodazole release).
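Wherever melting temperature (median over replicates), in situ is given: HeLa Kyoto cells synchronized by double thymidine or nocodazole block, proteins quantified by TMT10plex mass spectrometry, three independent biological replicates.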
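Wherever solubility change mitosis vs G1/S (difference of NP-40 vs SDS log2 ratios) is given: synchronized HeLa Kyoto cells (double thymidine block for G1/S, nocodazole release for mitosis), protein amounts in NP-40 versus SDS lysates quantified by mass spectrometry, three biological replicates.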
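Wherever solubility in G1/S (NP-40 vs SDS abundance) is given: HeLa Kyoto cells arrested at G1/S by double thymidine block, proteins quantified by TMT10plex mass spectrometry in mild NP-40 versus SDS extracts, three biological replicates.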
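Wherever thermal stability score vs G1/S (z-score of summed log2 fold changes over temperatures) is given: synchronized HeLa Kyoto cells, proteins quantified by TMT10plex mass spectrometry, three biological replicates, mitosis taken 0.5 h after nocodazole release, G1/S directly after double thymidine block.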

Chain of POLD2 (chain, as listed by the source): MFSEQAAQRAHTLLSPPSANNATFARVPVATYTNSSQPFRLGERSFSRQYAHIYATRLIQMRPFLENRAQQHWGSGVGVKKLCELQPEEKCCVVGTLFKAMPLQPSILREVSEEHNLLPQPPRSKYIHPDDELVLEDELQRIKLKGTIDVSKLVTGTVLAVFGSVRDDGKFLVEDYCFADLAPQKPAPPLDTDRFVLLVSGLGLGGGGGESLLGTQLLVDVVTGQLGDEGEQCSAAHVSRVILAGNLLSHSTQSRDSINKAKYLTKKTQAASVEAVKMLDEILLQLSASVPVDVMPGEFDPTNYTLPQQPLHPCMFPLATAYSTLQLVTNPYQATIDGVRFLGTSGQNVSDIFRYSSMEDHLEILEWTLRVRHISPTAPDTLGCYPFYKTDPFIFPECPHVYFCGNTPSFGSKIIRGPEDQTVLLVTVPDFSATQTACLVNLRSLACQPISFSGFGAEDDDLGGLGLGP

Consider “MSHGPSPRLAESPQLSKGSLLTILGSPSPERMGPADSLPPTPPSGTPSPGPPPALPLPPAPALLADGDWESREELRLRELEEARARAAQMEKTMRRWSDCTANWREKWSKVRAERNRAREEVRQLRQRLDALTKELAGARRERQEAQGECEARGRELARLRGARGVADQTRDGPEPEAEREPVRDVGSERPPGSQELELVESLLKSMPEESEDCWEARSLGAGGPRGSSGRQERSRLPWEDTAATEEEASKLTALRLRLDESQKVLLKEREDKLALSRNIEKLEGELSQWKIKYEELSKTKQEMLKQLSILKEAHQDELGRMSEDLEDELGARSSMDRKMAELRGEMERLQAENAAEWGRRERLETEKLGLERENKKLRAQVGDLEEALARRRRQTASALDCDLRASQAALFEKNKELADLKHVHGKLKKQFQEKVAELAHANRRVEQHEAEVKKLRLRVEELKKELAQAEDELDEAHNQARKLQRSLDEQTEQSENLQVQLEHLQSRLRRQQQNAPLFGKIRSARFGTEEAEDGTSDLDEDEDLQIQVA [CCDC102A]”, for which the “solubility change mitosis (log2)” value in series [1] was found to be 0.0825. In addition, the thermal stability score in series [2] (setting [5]) was -0.855; in series [2] (cell cycle stage: mitosis), -0.192. Further, the melting temperature was 50.8 °C in series [3] (cell cycle stage: G1/S) and 49.3 °C in series [3] (cell cycle stage: mitosis). Besides, in series [4], the “solubility in G1/S (log2)” value came to 0.448.
As for “MASLDRVKVLVLGDSGVGKSSLVHLLCQNQVLGNPSWTVGCSVDVRVHDYKEGTPEEKTYYIELWDVGGSVGSASSVKSTRAVFYNSVNGIIFVHDLTNKKSSQNLRRWSLEALNRDLVPTGVLVTNGDYDQEQFADNQIPLLVIGTKLDQIHETKRHEVLTRTAFLAEDFNPEEINLDCTNPRYLAAGSSNAVKLSRFFDKVIEKRYFLREGNQIPGFPDRKRFGAGTLKSLHYD [RABL3]”, in series [1], the “solubility change mitosis (log2)” value was -0.0274. Moreover, the thermal stability score in series [2] (setting [5]) is -0.0942; in series [2] (cell cycle stage: mitosis), -1.09. Further, the melting temperature in series [3] (cell cycle stage: G1/S) was determined as 52 °C; in series [3] (cell cycle stage: mitosis), 51.9 °C. In addition, the “solubility in G1/S (log2)” value in series [4] is 0.0735.
For POLD2, the “solubility change mitosis (log2)” value in series [1] was -0.136. Moreover, the thermal stability score in series [2] (setting [5]) is 1.48; in series [2] (cell cycle stage: mitosis) it was 2.07. The melting temperature worked out at 49.9 °C in series [3] (cell cycle stage: G1/S) and 49.5 °C in series [3] (cell cycle stage: mitosis). In series [4], the “solubility in G1/S (log2)” value came out at 0.263.
Consider “MASPGCLWLLAVALLPWTCASRALQHLDPPAPLPLVIWHGMGDSCCNPLSMGAIKKMVEKKIPGIYVLSLEIGKTLMEDVENSFFLNVNSQVTTVCQALAKDPKLQQGYNAMGFSQGGQFLRAVAQRCPSPPMINLISVGGQHQGVFGLPRCPGESSHICDFIRKTLNAGAYSKVVQERLVQAEYWHDPIKEDVYRNHSIFLADINQERGINESYKKNLMALKKFVMVKFLNDSIVDPVDSEWFGFYRSGQAKETIPLQETSLYTQDRLGLKEMDNAGQLVFLATEGDHLQLSEEWFYAHIIPFLG [PPT1]”, for which, in series [1], the “solubility change mitosis (log2)” value is -0.105. In addition, the thermal stability score was 0.0933 in series [2] (setting [5]) and -1.67 in series [2] (cell cycle stage: mitosis). For the same substance, the melting temperature was found to be 55.1 °C in series [3] (cell cycle stage: G1/S) and 55.2 °C in series [3] (cell cycle stage: mitosis). Moreover, the “solubility in G1/S (log2)” value in series [4] is 0.426.
For the substance “MRECISVHVGQAGVQMGNACWELYCLEHGIQPDGQMPSDKTIGGGDDSFTTFFCETGAGKHVPRAVFVDLEPTVIDEIRNGPYRQLFHPEQLITGKEDAANNYARGHYTIGKEIIDPVLDRIRKLSDQCTGLQGFLVFHSFGGGTGSGFTSLLMERLSVDYGKKSKLEFSIYPAPQVSTAVVEPYNSILTTHTTLEHSDCAFMVDNEAIYDICRRNLDIERPTYTNLNRLISQIVSSITASLRFDGALNVDLTEFQTNLVPYPRIHFPLATYAPVISAEKAYHEQLSVAEITNACFEPANQMVKCDPRHGKYMACCLLYRGDVVPKDVNAAIAAIKTKRSIQFVDWCPTGFKVGINYQPPTVVPGGDLAKVQRAVCMLSNTTAIAEAWARLDHKFDLMYAKRAFVHWYVGEGMEEGEFSEAREDMAALEKDYEEVGIDSYEDEDEGEE [TUBA4A]”, the “solubility change mitosis (log2)” value in series [1] is -0.138. In addition, the thermal stability score in series [2] (setting [5]) is -0.775; in series [2] (cell cycle stage: mitosis), -2.94. The results for the melting temperature in series [3] (cell cycle stage: G1/S) and in series [3] (cell cycle stage: mitosis) were 55.6 °C and 54.2 °C, respectively. In series [4], the “solubility in G1/S (log2)” value was 0.111.
On to “MEPGRRGAAALLALLCVACALRAGRAQYERYSFRSFPRDELMPLESAYRHALDKYSGEHWAESVGYLEISLRLHRLLRDSEAFCHRNCSAAPQPEPAAGLASYPELRLFGGLLRRAHCLKRCKQGLPAFRQSQPSREVLADFQRREPYKFLQFAYFKANNLPKAIAAAHTFLLKHPDDEMMKRNMAYYKSLPGAEDYIKDLETKSYESLFIRAVRAYNGENWRTSITDMELALPDFFKAFYECLAACEGSREIKDFKDFYLSIADHYVEVLECKIQCEENLTPVIGGYPVEKFVATMYHYLQFAYYKLNDLKNAAPCAVSYLLFDQNDKVMQQNLVYYQYHRDTWGLSDEHFQPRPEAVQFFNVTTLQKELYDFAKENIMDDDEGEVVEYVDDLLELEETS [CRTAP]”, for which the “solubility change mitosis (log2)” value in series [1] was -0.0925. Moreover, the thermal stability score is 3.61 in series [2] (setting [5]) and 4.97 in series [2] (cell cycle stage: mitosis). The results for the melting temperature in series [3] (cell cycle stage: G1/S) and in series [3] (cell cycle stage: mitosis) were 53.3 °C and 54.8 °C, respectively. Moreover, the “solubility in G1/S (log2)” value in series [4] was determined as 0.35.
“MSLSENSVFAYESSVHSTNVLLSLNDQRKKDVLCDVTIFVEGQRFRAHRSVLAACSSYFHSRIVGQADGELNITLPEEVTVKGFEPLIQFAYTAKLILSKENVDEVCKCVEFLSVHNIEESCFQFLKFKFLDSTADQQECPRKKCFSSHCQKTDLKLSLLDQRDLETDEVEEFLENKNVQTPQCKLRRYQGNAKASPPLQDSASQTYESMCLEKDAALALPSLCPKYRKFQKAFGTDRVRTGESSVKDIHASVQPNERSENECLGGVPECRDLQVMLKCDESKLAMEPEETKKDPASQCPTEKSEVTPFPHNSSIDPHGLYSLSLLHTYDQYGDLNFAGMQNTTVLTEKPLSGTDVQEKTFGESQDLPLKSDLGTREDSSVASSDRSSVEREVAEHLAKGFWSDICSTDTPCQMQLSPAVAKDGSEQISQKRSECPWLGIRISESPEPGQRTFTTLSSVNCPFISTLSTEGCSSNLEIGNDDYVSEPQQEPCPYACVISLGDDSETDTEGDSESCSAREQECEVKLPFNAQRIISLSRNDFQSLLKMHKLTPEQLDCIHDIRRRSKNRIAAQRCRKRKLDCIQNLESEIEKLQSEKESLLKERDHILSTLGETKQNLTGLCQKVCKEAALSQEQIQILAKYSAADCPLSFLISEKDKSTPDGELALPSIFSLSDRPPAVLPPCARGNSEPGYARGQESQQMSTATSEQAGPAEQCRQSGGISDFCQQMTDKCTTDE [BACH1]”: in series [1], the “solubility change mitosis (log2)” value stood at 0.0971. In addition, the thermal stability score in series [2] (setting [5]) was -0.135; in series [2] (cell cycle stage: mitosis), -2.84. Further, the melting temperature was 53.6 °C in series [3] (cell cycle stage: G1/S) and 53.1 °C in series [3] (cell cycle stage: mitosis). Further, the “solubility in G1/S (log2)” value in series [4] was -0.0438.
For “MQDGNFLLSALQPEAGVCSLALPSDLQLDRRGAEGPEAERLRAARVQEQVRARLLQLGQQPRHNGAAEPEPEAETARGTSRGQYHTLQAGFSSRSQGLSGDKTSGFRPIAKPAYSPASWSSRSAVDLSCSRRLSSAHNGGSAFGAAGYGGAQPTPPMPTRPVSFHERGGVGSRADYDTLSLRSLRLGPGGLDDRYSLVSEQLEPAATSTYRAFAYERQASSSSSRAGGLDWPEATEVSPSRTIRAPAVRTLQRFQSSHRSRGVGGAVPGAVLEPVARAPSVRSLSLSLADSGHLPDVHGFNSYGSHRTLQRLSSGFDDIDLPSAVKYLMASDPNLQVLGAAYIQHKCYSDAAAKKQARSLQAVPRLVKLFNHANQEVQRHATGAMRNLIYDNADNKLALVEENGIFELLRTLREQDDELRKNVTGILWNLSSSDHLKDRLARDTLEQLTDLVLSPLSGAGGPPLIQQNASEAEIFYNATGFLRNLSSASQATRQKMRECHGLVDALVTSINHALDAGKCEDKSVENAVCVLRNLSYRLYDEMPPSALQRLEGRGRRDLAGAPPGEVVGCFTPQSRRLRELPLAADALTFAEVSKDPKGLEWLWSPQIVGLYNRLLQRCELNRHTTEAAAGALQNITAGDRRWAGVLSRLALEQERILNPLLDRVRTADHHQLRSLTGLIRNLSRNARNKDEMSTKVVSHLIEKLPGSVGEKSPPAEVLVNIIAVLNNLVVASPIAARDLLYFDGLRKLIFIKKKRDSPDSEKSSRAASSLLANLWQYNKLHRDFRAKGYRKEDFLGP [PKP3]”, in series [1], the “solubility change mitosis (log2)” value was determined as 0.099. Further, the thermal stability score in series [2] (setting [5]) is -0.69; in series [2] (cell cycle stage: mitosis), -0.255. For the same substance, the melting temperature came out at 50.1 °C in series [3] (cell cycle stage: G1/S) and 48.3 °C in series [3] (cell cycle stage: mitosis). Also, the “solubility in G1/S (log2)” value in series [4] is -0.223.
